Measurements: the supplement of paper PMC9732359
± gives the uncertainty stated by the source.

Assay: protein stability index of a GFP-peptide fusion (yeast GPS) (PSI 1-4); higher = more stable; sorted into four equal gates, so the index is relative within each strain
How it was run: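 Tiled 17-residue yeast protein peptides were fused downstream of GFP in a plasmid that also expresses Cherry, and the pooled library was carried in yeast. Mid-log cultures in leucine-free medium were sorted into four equal gates by GFP/Cherry fluorescence ratio, and plasmids from each gate were PCR-amplified and Illumina-sequenced, with reads assigned to strains by barcodes. The protein stability index for each peptide was each gate's read frequency times its gate number, summed.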

Sequence | protein stability index (doa10∆) | protein stability index (pdr5∆) | protein stability index (san1∆) | protein stability index (ubr1∆)
VIVTDPRSDAQAIKEAS [RPS0A] | 2.88 ± 0.089 | 2.96 ± 0.08 | 2.92 ± 0.068 | 2.91 ± 0.061
SNSAGTSLFGSSSAQQT [YJL041W/NSP1] | 3.15 ± 0.069 | 3.08 ± 0.079 | 3.12 ± 0.073 | 3.17 ± 0.052
EKRATSPLLESDSIEKI [PUP2] | 3.12 ± 0.087 | 3.07 ± 0.077 | 3.29 ± 0.09 | 3.23 ± 0.068
ICERIFEQGQALKEDER [RRI2] |  |  |  | 3.21 ± 0.19
LTNMMSPMGNAYSMGAQ [PGD1] | 2.34 ± 0.062 | 2.64 ± 0.077 | 2.49 ± 0.084 | 2.68 ± 0.044
FHSEISPDSTVNRSVVV [YAR002W/NUP60] | 1.75 ± 0.11 | 1.76 ± 0.052 | 1.76 ± 0.13 | 2.16 ± 0.059
KEEFSSAENRDEKDYLT [CSE2] | 2.79 ± 0.083 | 2.85 ± 0.086 | 2.65 ± 0.065 | 2.99 ± 0.12
LNICRQCFREKANDIGF [RPS29A] | 2.8 ± 0.094 | 2.97 ± 0.12 | 3.07 ± 0.1 | 2.86 ± 0.11
RRWNKLCTLNDSKGSLY [YGL100W/SEH1] | 3.31 ± 0.078 | 3.24 ± 0.072 | 2.91 ± 0.078 | 3.1 ± 0.046
NHPELQGITRNVVNYLS [RPC17] | 2.02 ± 0.062 | 1.83 ± 0.061 | 2.19 ± 0.11 | 2.47 ± 0.062
FLDSQRVWAEYATKRQE [PRP8] | 1.54 ± 0.078 | 2 ± 0.07 | 1.92 ± 0.097 | 2.07 ± 0.083
SFAKLVPCEGKDVTQGL [SMC2] | 1.62 ± 0.08 | 2.07 ± 0.088 | 1.5 ± 0.23 | 1.86 ± 0.08
SSGFNEDIVGALRRRVG [REC8] | 1.17 ± 0.085 | 1.16 ± 0.055 | 1.44 ± 0.26 | 1.11 ± 0.11
YLVEAPWNDDYPFLLSF [YML103C/NUP188] | 1.4 ± 0.048 | 1.69 ± 0.066 | 1.43 ± 0.097 | 1.61 ± 0.072
EPDREKIKLLTQATSED [RPC19] | 2.95 ± 0.2 | 3.19 ± 0.11 | 2.73 ± 0.12 | 3.28 ± 0.11
YMLIEEAASSNKSFIVD [ITC1] | 2.96 ± 0.078 | 2.91 ± 0.06 | 2.78 ± 0.041 | 2.9 ± 0.049
VVNQPTGKIVDVVGTLS [FAS1] | 3.1 ± 0.12 | 3.49 ± 0.12 | 3.49 ± 0.092 | 3.11 ± 0.061
VDGMAKVPIGLILQRLK [RGR1] | 2.51 ± 0.1 | 2.67 ± 0.091 | 2.22 ± 0.15 | 2.49 ± 0.057
MMTRRVVMAMYNPKMID [RET1] | 3.46 ± 0.15 | 3.37 ± 0.19 | 2.62 ± 0.29 | 3.05 ± 0.094
RQFSNEEVNRCYLRWQH [SNF2] | 2.83 ± 0.081 | 2.78 ± 0.08 | 2.95 ± 0.086 | 3.01 ± 0.071
QYSTRHDAPRGLFPFES [SWI3] | 3.14 ± 0.062 | 3.17 ± 0.073 | 3.2 ± 0.077 | 3.13 ± 0.067
IGTADIFIRQLKENEEN [BRR2] | 3.61 ± 0.12 | 3.1 ± 0.3 |  | 1.36 ± 0.1
KVQISKIPILAQHESFL [RPN9] | 1.97 ± 0.06 | 2.05 ± 0.045 | 2.16 ± 0.075 | 2.41 ± 0.037
LNEAQGHIVSLELTTGA [SMD3] | 1.47 ± 0.053 | 1.9 ± 0.059 | 1.59 ± 0.14 | 1.85 ± 0.072
TCSYVEEAGSPLVYRHE [RPB9] | 3.06 ± 0.13 | 2.92 ± 0.15 | 3.28 ± 0.11 | 2.75 ± 0.28
SFSLTTFSPSGKLGQID [PRE8] | 3 ± 0.14 | 2.67 ± 0.1 | 3.01 ± 0.074 | 3.08 ± 0.073

Sequence | protein stability index (doa10∆) | protein stability index (pdr5∆) | protein stability index (san1∆) | protein stability index (ubr1∆)
EKELQNEIKQLGSDSSD [SRB4] | 2.95 ± 0.1 | 2.81 ± 0.1 | 2.27 ± 0.087 | 2.85 ± 0.12
GYDRHITIFSPEGRLYQ [SCL1] | 2.76 ± 0.11 | 2.84 ± 0.082 | 2.96 ± 0.057 | 3.06 ± 0.077
MEKDKLKNLLRSNFRVN [SNU114] | 1.99 ± 0.087 | 2.45 ± 0.08 | 2.46 ± 0.13 | 2.65 ± 0.087
NAGTDIVMEDHGVLQGT [MED1] | 3.11 ± 0.072 | 3.06 ± 0.1 | 3.08 ± 0.085 | 3 ± 0.067
SPLDIYSDEASAQKKRF [RPS2] | 2.74 ± 0.092 | 2.86 ± 0.082 | 3.03 ± 0.07 | 3.03 ± 0.061
TFTFTAHMGVLLVLLQD [SWP82] | 1.71 ± 0.044 | 1.32 ± 0.044 | 1.41 ± 0.087 | 1.42 ± 0.035
DLVHIKDSLDNTFVTRL [RPS4A] | 2.79 ± 0.12 | 2.83 ± 0.091 | 3 ± 0.094 | 3.04 ± 0.058
SDLLVAPPLENENSNCL [YML103C/NUP188] | 3 ± 0.095 | 3.28 ± 0.1 | 3.25 ± 0.14 | 3.18 ± 0.11
LPKAWISLAVEGEPVNS [COR1] | 1.38 ± 0.12 | 2.1 ± 0.14 | 2.84 ± 0.14 | 1.79 ± 0.1
VHTANFSERGSNTRTMT [MED2] | 3.37 ± 0.3 | 3.35 ± 0.26 | 3.08 ± 0.14 | 3.26 ± 0.22
GMMSTTGTARLNSMPNN [YJL039C/NUP192] |  | 2.99 ± 0.15 | 3.1 ± 0.089 | 3.22 ± 0.11
TRNSLGNVIQFIYGEDG [RPO21] | 3.01 ± 0.06 | 2.92 ± 0.053 | 3.25 ± 0.042 | 3.28 ± 0.037
EVNKSELYLTAELSEIW [SIR3] |  | 2.86 ± 0.29 |  | 3.24 ± 0.21
PESIRQKKARTILQHLS [PRP8] | 1.21 ± 0.099 | 1.53 ± 0.093 | 1.12 ± 0.21 | 1.21 ± 0.24
TSDLVKSLGLKLPLSVI [RPS17A] | 1.12 ± 0.07 | 1.52 ± 0.078 | 1.86 ± 0.16 | 1.95 ± 0.091
GILYMGQGEQVDDVLET [RPN1] | 1.23 ± 0.16 | 1.19 ± 0.15 | 1.07 ± 0.18 | 1.23 ± 0.11
TFNNQDKGLLPYAIMET [RPO31] | 1.99 ± 0.067 | 2.46 ± 0.085 | 1.44 ± 0.075 | 1.48 ± 0.058
EEPSRVDPEQEAHNKAL [RPT4] | 3.4 ± 0.16 | 3.31 ± 0.1 | 3.46 ± 0.063 | 3.23 ± 0.11
QFKSKEVEKAHPIRLYT [PRP8] | 3.17 ± 0.085 | 2.88 ± 0.056 | 2.71 ± 0.063 | 2.86 ± 0.06
MVLEATVLVIDNSEYSR [RPN10] | 1.79 ± 0.097 | 1.72 ± 0.12 | 1.85 ± 0.12 | 2.2 ± 0.046
EEDYNEFNSIDRVIFRV [PRP8] | 3.27 ± 0.1 | 3.17 ± 0.11 | 3.02 ± 0.19 | 2.94 ± 0.068
LSTRAGGLGLNLQTADT [SNF2] | 2.75 ± 0.084 | 2.7 ± 0.068 | 2.7 ± 0.076 | 3.2 ± 0.058
NRQQKKRRFDPSSSDSN [RRP6] | 2.77 ± 0.056 | 2.69 ± 0.078 | 3.05 ± 0.053 | 3.19 ± 0.067
SSHQRVFKLSTNLISKI [SWP82] | 2.08 ± 0.073 | 1.97 ± 0.057 | 1.52 ± 0.11 | 1.93 ± 0.048
SVAPTKQREIVKAFLSI [NUT1] | 2.1 ± 0.11 | 1.94 ± 0.073 | 2.41 ± 0.13 | 2.04 ± 0.063
VDTLHNKEGTLEQREQN [SSN2] | 3.14 ± 0.15 | 3.47 ± 0.099 | 3.21 ± 0.058 | 3.35 ± 0.081
